The Kd is a measure of binding affinity in units of concentration. A higher Kd goes with weaker binding.

This passage reports Kd results from article PMC3821027.

Read-outs that look alike come from different tables or passages of the source.

Data set [1] concerns rCTS (TRX-L1 ORF2p CTS, wild type) (Homo sapiens (LRE1 / L1.2 element, pSM42)). Put plainly: EMSA.
Data set [2] shares this test system. Briefly: EMSA. This is another data set of the same source. (In EMSA bound probe runs differently from free probe, usually more slowly.)

With 380 nt L1 3'UTR RNA, the results for the equilibrium dissociation constant (Kd) in data set [1] and in data set [2] were 0.057 µM and 0.063 µM, respectively.
